According to article PMC10411625, “Rationally designed stapled peptides allosterically inhibit PTBP1–RNA-binding” (Chemical Science, 2023):

experiment: circular dichroism; conditions: 20 mM sodium phosphate, 10 mM NaF; pH 8; 20 °C; 50 uM

**Q.** For `CC(=O)N[C@@H](CC(N)=O)C(=O)N[C@@H](CCC(N)=O)C(=O)N[C@@]1(C)CCCC=CCCC[C@]2(CCCC=CCCC[C@](C)(C(=O)N[C@H](C(=O)N[C@@H](CC(N)=O)C(N)=O)C(C)C)NC(=O)[C@H](CCC(N)=O)NC(=O)[C@H](CC(C)C)NC(=O)[C@H](C)NC2=O)NC(=O)[C@H](CCC(N)=O)NC(=O)[C@H](C)NC(=O)[C@H](CCCNC(=N)N)NC1=O`, which helicity is on record?
**A.** The helicity was 100%.

**Q.** Which helicity does the source give for `CC(=O)N[C@@H](CC(N)=O)C(=O)N[C@@H](CCC(N)=O)C(=O)N[C@@H](C)C(=O)N[C@@H](CCCNC(=N)N)C(=O)N[C@@H](C)C(=O)N[C@@]1(C)CCCCCCCC[C@@](C)(C(=O)N[C@@H](C)C(=O)N[C@H](C(=O)N[C@@H](CC(N)=O)C(N)=O)C(C)C)NC(=O)[C@H](CC(C)C)NC(=O)[C@H](C)NC(=O)[C@H](C)NC1=O` here?
**A.** Its helicity is 77.3%.

**Q.** For Ac-NQARAQAALQAVNR-NH2, which helicity is on record?
**A.** Its helicity is 20.2%.

**Q.** Which helicity does the source give for `CC(=O)N[C@@H](CC(N)=O)C(=O)N[C@@H](CCC(N)=O)C(=O)N[C@@]1(C)CCCC=CCCC[C@]2(CCCC=CCCC[C@](C)(C(=O)N[C@H](C(=O)N[C@@H](CC(N)=O)C(N)=O)C(C)C)NC(=O)[C@H](CCC(N)=O)NC(=O)[C@H](CC(C)C)NC(=O)[C@H](C)NC2=O)NC(=O)[C@H](CCC(N)=O)NC(=O)[C@H](C)NC(=O)[C@H](CCNC(=N)N)NC1=O` here?
**A.** Its helicity is 100%.

**Q.** Which helicity does the source give for `CC(=O)N[C@@H](CC(N)=O)C(=O)N[C@@H](CCC(N)=O)C(=O)N[C@@]1(C)CCCC=CCCC[C@]2(CCCC=CCCC[C@](C)(C(=O)N[C@H](C(=O)N[C@@H](CC(=O)O)C(N)=O)C(C)C)NC(=O)[C@H](CCC(N)=O)NC(=O)[C@H](CC(C)C)NC(=O)[C@H](C)NC2=O)NC(=O)[C@H](CCC(N)=O)NC(=O)[C@H](C)NC(=O)[C@H](CCCNC(=N)N)NC1=O` here?
**A.** The helicity was 98.2%.

**Q.** Which helicity does the source give for `CC(=O)N[C@@H](CC(N)=O)C(=O)N[C@@H](CCC(N)=O)C(=O)N[C@@H](C)C(=O)N[C@@H](CCCNC(=N)N)C(=O)N[C@@H](C)C(=O)N[C@@H](CCC(N)=O)C(=O)N[C@@]1(C)CCCCCCCC[C@@](C)(C(=O)N[C@H](C(=O)N[C@@H](CC(N)=O)C(N)=O)C(C)C)NC(=O)[C@H](CCC(N)=O)NC(=O)[C@H](CC(C)C)NC(=O)[C@H](C)NC1=O` here?
**A.** Its helicity is 57.8%.

**Q.** With `CC(=O)N[C@@H](CC(N)=O)C(=O)N[C@@H](CCC(N)=O)C(=O)N[C@@]1(C)CCCCCCCC[C@@](C)(C(=O)N[C@@H](C)C(=O)N[C@@H](CC(C)C)C(=O)N[C@@H](CCC(N)=O)C(=O)N[C@@H](C)C(=O)N[C@H](C(=O)N[C@@H](CC(N)=O)C(N)=O)C(C)C)NC(=O)[C@H](CCC(N)=O)NC(=O)[C@H](C)NC(=O)[C@H](CCCNC(=N)N)NC1=O` as the compound, how does the helicity read?
**A.** The helicity was 92.3%.

**Q.** For `CC(=O)N[C@H](C(=O)N[C@@H](CCC(N)=O)C(=O)N[C@@]1(C)CCCC=CCCC[C@]2(CCCC=CCCC[C@](C)(C(=O)N[C@H](C(=O)N[C@@H](CC(N)=O)C(N)=O)C(C)C)NC(=O)[C@H](CCC(N)=O)NC(=O)[C@H](CC(C)C)NC(=O)[C@H](C)NC2=O)NC(=O)[C@H](CCC(N)=O)NC(=O)[C@H](C)NC(=O)[C@H](CCCNC(=N)N)NC1=O)C(C)C`, which helicity is on record?
**A.** Its helicity is 100%.

**Q.** For `CC(=O)N[C@@H](CC(N)=O)C(=O)N[C@@H](CCC(N)=O)C(=O)N[C@@]1(C)CCCC=CCCC[C@]2(CCCC=CCCC[C@](C)(C(=O)N[C@H](C(=O)N[C@@H](CC(N)=O)C(N)=O)C(C)C)NC(=O)[C@H](CCC(N)=O)NC(=O)[C@H](CC(N)=O)NC(=O)[C@H](C)NC2=O)NC(=O)[C@H](CCC(N)=O)NC(=O)[C@H](C)NC(=O)[C@H](CCCNC(=N)N)NC1=O`, which helicity is on record?
**A.** The helicity was 100%.
